Bridge positions count the residues as written; N and C are the ends. Square brackets hold non-standard residues; d marks the D form. Primed or numbered codes have the meaning given here. Ends that are not written are not given here. PEG13′ = Bifunctional PEG linker with 13 polyethylene glycol units; PEG25′ = Bifunctional PEG linker with 25 polyethylene glycol units; Phe(4-CF3) = N[C@@H](Cc1ccc(C(F)(F)F)cc1)C(=O)O; Bip = N[C@@H](Cc1ccc(-c2ccccc2)cc1)C(=O)O; Phe(4-CN) = N#Cc1ccc(C[C@H](N)C(=O)O)cc1; 1Nal = N[C@@H](Cc1cccc2ccccc12)C(=O)O; 2Nal = N[C@@H](Cc1ccc2ccccc2c1)C(=O)O; NMeR = CN[C@@H](CCCNC(=N)N)C(=O)O; Tic = O=C(O)[C@@H]1Cc2ccccc2CN1; β3hE = N[C@@H](CCC(=O)O)CC(=O)O; NMeK = CN[C@@H](CCCCN)C(=O)O; Pen = CC(C)(S)[C@H](N)C(=O)O; hLeu = CC(C)CC[C@H](N)C(=O)O
B1: SEQ ID NO 158 (peptide)
peptide: Ac-XRSDXLXXE-NH2
modifications: disulfide 1-7 (inferred); not fully specified (residues 1, 2, 5, 7, 8, 9); printed as Ac-Pen-(N-Me-R)-S-D-Cha-L-Pen-(2-Nal)-e-NH2, disulfide

Biological target: α4β7 integrin on human cells (human, UniProt P13612 34-1032; P26010 20-798)
Test: cell-based or functional assay

Row | α4β7 cell (Hu) IC50 | Binder
1 | > 100 nM | Ac-[Pen][NMeR]SDTL[Pen]H[dE][dK]-NH2 (disulfide 1-7 (inferred); also: homodimer via DIG) [SEQ ID NO 124]
2 | > 100 nM | XRSDTLXW (Ac-Pen-(N-Me-R)-S-D-T-L-Pen-W-OH; disulfide) [SEQ ID NO 127]
3 | > 25 nM | Ac-[Pen][NMeR]SDTL[Pen][2Nal][dH][dK]-NH2 (disulfide 1-7 (inferred); also: homodimer via DIG) [SEQ ID NO 118]
4 | > 100 nM | Ac-[Pen][NMeR]SDTL[Pen][2Nal][dF][dK]-NH2 (disulfide 1-7 (inferred); also: homodimer via DIG) [SEQ ID NO 117]
5 | ≤ 10 nM | Ac-[Pen][NMeR]SDTL[Pen][Bip][β3hE][dK]-NH2 (disulfide 1-7 (inferred); also: homodimer via DIG) [SEQ ID NO 135]
6 | > 500 nM | Ac-[Pen][NMeR]SDTL[Pen][2Nal][dL][dK]-NH2 (disulfide 1-7 (inferred); also: homodimer via DIG) [SEQ ID NO 119]
7 | > 50 nM | Ac-[Pen][NMeR]SDTL[Pen]WE-OH (disulfide 1-7 (inferred)) [SEQ ID NO 128]
8 | > 10 nM | Ac-[Pen][NMeR]SDTL[Pen]HE[dK]-NH2 (disulfide 1-7 (inferred); also: homodimer via DIG) [SEQ ID NO 25]
9 | > 50 nM | Ac-[Pen][NMeR]SDTL[Pen]W[BetaE][dK]-NH2 (disulfide 1-7 (inferred); also: dimer via DIG) [SEQ ID NO 1]
10 | > 50 nM | Ac-[Pen][NMeR]SDTL[Pen][Phe(4-CF3)][dE][dK]-NH2 (disulfide 1-7 (inferred); also: homodimer via DIG) [SEQ ID NO 122]
11 | > 50 nM | Ac-[Pen][NMeR]SDTL[Pen]Y[dE][dK]-NH2 (disulfide 1-7 (inferred); also: homodimer via DIG) [SEQ ID NO 123]
12 | > 100 nM | Ac-[Pen][NMeR]SDTL[Pen][2Nal][Tic][dK]-NH2 (disulfide 1-7 (inferred); also: homodimer via DIG) [SEQ ID NO 121]
13 | > 1000 nM | Ac-[Pen][NMeR]SDTL[Pen][2Nal][dR][dK]-NH2 (disulfide 1-7 (inferred); also: homodimer via DIG) [SEQ ID NO 120]
14 | ≤ 10 nM | Ac-[Pen][NMeR]SDTL[Pen][Phe(4-CN)][β3hE][dK]-NH2 (disulfide 1-7 (inferred); also: homodimer via DIG) [SEQ ID NO 139]
15 | > 100 nM | Ac-[Pen][NMeR]SDTL[Pen]HY[dK]-NH2 (disulfide 1-7 (inferred); also: homodimer via DIG) [SEQ ID NO 26]
16 | > 10 nM | Ac-[Pen][NMeR]SDTL[Pen][2Nal][dT][dK]-NH2 (disulfide 1-7 (inferred); also: homodimer via DIG) [SEQ ID NO 140]

Row | α4β7 cell (Hu) IC50 | Binder
17 | > 50 nM | [PEG13′]C[NMeR]SDTL[Pen]W-NH2 (disulfide 2-8 (inferred)) [SEQ ID NO 20]
18 | > 100 nM | Ac-[Pen][NMeR]SDTL[Pen][1Nal][Tic][dK]-NH2 (disulfide 1-7 (inferred); also: homodimer via DIG) [SEQ ID NO 115]
19 | > 1000 nM | Ac-[Pen][NMeR]SDFL[Pen][2Nal][dE]-NH2 (disulfide 1-7 (inferred)) [SEQ ID NO 157]
20 | > 1000 nM | Ac-[Pen][NMeR]SD[hLeu]L[Pen][2Nal][dE]-NH2 (disulfide 1-7 (inferred)) [SEQ ID NO 161]
21 | > 100 nM | Ac-[Pen][NMeR]SDVL[Pen][2Nal][dE]-NH2 (disulfide 1-7 (inferred)) [SEQ ID NO 156]
22 | > 1000 nM | Ac-[Pen][NMeR]SDIL[Pen][2Nal][dE]-NH2 (disulfide 1-7 (inferred)) [SEQ ID NO 160]
23 | > 1000 nM | Ac-[Pen][NMeR]SDTY[Pen][2Nal][dE]-NH2 (disulfide 1-7 (inferred)) [SEQ ID NO 164]
24 | > 1000 nM | Ac-[Pen][NMeR]SDTQ[Pen][2Nal][dE]-NH2 (disulfide 1-7 (inferred)) [SEQ ID NO 163]
25 | > 50 nM | [PEG25′]C[NMeR]SDTL[Pen]W-NH2 (disulfide 2-8 (inferred)) [SEQ ID NO 21]
26 | > 25 nM | Ac-[Pen][NMeR]SDTL[Pen][2Nal][dY][dK]-NH2 (disulfide 1-7 (inferred); also: homodimer via DIG) [SEQ ID NO 27]
27 | > 1000 nM | Ac-[Pen][NMeR]SDLL[Pen][2Nal][dE]-NH2 (disulfide 1-7 (inferred)) [SEQ ID NO 159]
28 | > 1000 nM | Ac-[Pen][NMeR]SDTF[Pen][2Nal][dE]-NH2 (disulfide 1-7 (inferred)) [SEQ ID NO 162]
29 | ≤ 10 nM | Ac-[Pen][NMeR]SDTL[Pen][Bip]E[NMeK]-NH2 (disulfide 1-7 (inferred); also: homodimer via DIG) [SEQ ID NO 136]
30 | > 1000 nM | B1
31 | > 50 nM | Ac-[Pen][NMeR]SDTL[Pen][1Nal][dT][dK]-NH2 (disulfide 1-7 (inferred); also: homodimer via DIG) [SEQ ID NO 116]
